Experimental data from the supplement of paper PMC7125110.
± gives the standard error. Fewer inactive variants are shown than the library holds.

B1: glmS ribozyme (parent)
chain: AUAAAAGCGCCAGAACUACAGAAAUGUAGUUGACGAGGAGGAGGUUUAUCGAAUUUUCGGCGGAUGCCUCCAAA

Legend:
Conditions in all cases: with glucosamine-6-phosphate
glucosamine-6-phosphate [1] = variants of: B1; experiment: self-cleavage kobs at 640 uM GlcN6P; higher = faster cleavage; RNA array
How it was run: (§1)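 Sequenced MiSeq chips were the platform: E. coli RNA polymerase transcribed barcoded ribozyme variants on them in situ, and a hybridised Cy3 probe tracked these at 37 °C. After glucosamine-6-phosphate (40 μM to 10 mM) in HEPES/KCl/Mg(OAc)2 buffer was flowed in, tiles were imaged over ~14 h. Signals normalised to baseline and to non-cleaving reference variants were reduced to per-tile medians and fit to one- or two-exponential decays to obtain kobs. kcat and KM were derived through weighted Michaelis–Menten fits across concentrations.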

glucosamine-6-phosphate [2] = variants of: B1; experiment: self-cleavage kobs at 2500 uM GlcN6P; higher = faster cleavage; RNA array
How it was run: as §1

glucosamine-6-phosphate [3] = variants of: B1; experiment: self-cleavage kobs at 10000 uM GlcN6P; higher = faster cleavage; RNA array
How it was run: as §1

Variant	self-cleavage kobs at 640 uM GlcN6P (glucosamine-6-phosphate [1]) [s⁻¹]	self-cleavage kobs at 2500 uM GlcN6P (glucosamine-6-phosphate [2]) [s⁻¹]	self-cleavage kobs at 10000 uM GlcN6P (glucosamine-6-phosphate [3]) [s⁻¹]
A14G C50G G51C C61U U69A	0.000136 ± 6.5e-05	–	–
C11G G29C G59C	< 1e-05	–	–
A14U A64U U65A C67G C71G	7.6e-05 ± 2.4e-05	4.74e-05 ± 2.1e-05	–
A14G A52U G60A	< 1e-05	–	–
G13C G35U A52U	< 1e-05	–	–
A12C A33U A52G U54G	< 1e-05	–	–
C11G U30G A42U A53U G63U U65A C68G	< 1e-05	–	–
A12C U65G C67U	0.000474 ± 0.00016	–	0.00133 ± 0.00031
A12G G29C A39G A52C C67A	< 1e-05	–	–
C11U C50U G60C	< 1e-05	–	–
A12C U46A G62C	< 1e-05	–	–
A14C A33C G44C G59U	< 1e-05	< 1e-05	–
A14C G38U G44U C68G	< 1e-05	< 1e-05	–
A15C U30A U31G C34G C67G	5.05e-05 ± 2.3e-05	–	–
A14C A33C A53U U55A G60U	< 1e-05	< 1e-05	–
C11G G13U C50G G60U C61G	5.02e-05 ± 2.4e-05	–	–
A14U G40A U56G U57C	< 1e-05	< 1e-05	–
C11G U45G C71U	< 1e-05	< 1e-05	–
A15G U56A C61G	< 1e-05	–	–
A12C C67A C68A	7.04e-05 ± 1.6e-05	4.41e-05 ± 2.1e-05	–
A12C A14C U31G	0.00206 ± 0.00061	0.00423 ± 0.0015	–
A15U U30A C68G	9.94e-05 ± 2.9e-05	–	–

Variant	self-cleavage kobs at 640 uM GlcN6P (glucosamine-6-phosphate [1]) [s⁻¹]	self-cleavage kobs at 2500 uM GlcN6P (glucosamine-6-phosphate [2]) [s⁻¹]	self-cleavage kobs at 10000 uM GlcN6P (glucosamine-6-phosphate [3]) [s⁻¹]
A15C G29C G35A C50A	< 1e-05	< 1e-05	–
A15C A33C G59C	< 1e-05	< 1e-05	–
G13A G40A G44U C67U C68G	< 1e-05	< 1e-05	< 1e-05
C11U A53G G66A	0.000178 ± 4e-05	–	–
G13U G43C C67U	< 1e-05	< 1e-05	< 1e-05
A15G G37U C58A C70A	6.04e-05 ± 1.8e-05	–	–
C11U A33C G41A	< 1e-05	–	–
A12U U31C C67U	0.000286 ± 9.1e-05	–	–
G13A C16A C68G	7.67e-05 ± 3.7e-05	–	–
G13U G29U A52C	< 1e-05	–	–
G13U A39G U55G	0.000281 ± 8e-05	0.000683 ± 0.00022	0.0028 ± 0.00059
A14G G35A U45G G66U	< 1e-05	< 1e-05	–
A14U C68G	6.11e-05 ± 1.7e-05	3.41e-05 ± 1.3e-05	–
G13C G29C	2.89e-05 ± 9.5e-06	3.23e-05 ± 1.2e-05	9.98e-05 ± 2.1e-05
C11G C50U U57A G60A C67U	0.000609 ± 0.00017	–	–
A12G G26U G38A C68G C71A	0.000109 ± 2e-05	7.22e-05 ± 2.4e-05	–
C11U A15U U57G C58U C67U	0.00016 ± 4e-05	0.000131 ± 4.9e-05	–
C11U G41U A48G	< 1e-05	–	–
A12G A15U U45C G59A	< 1e-05	< 1e-05	–
A15G G40A G59U C67G	< 1e-05	< 1e-05	–
C11U G35U C68G C70A	0.000984 ± 0.00032	–	–
G13C U46A G66A C70A	< 1e-05	–	–

Variant	self-cleavage kobs at 640 uM GlcN6P (glucosamine-6-phosphate [1]) [s⁻¹]	self-cleavage kobs at 2500 uM GlcN6P (glucosamine-6-phosphate [2]) [s⁻¹]	self-cleavage kobs at 10000 uM GlcN6P (glucosamine-6-phosphate [3]) [s⁻¹]
A14U A15G G60U G66A	< 1e-05	–	–
A15G G35A G44U C50G G59C G60C	< 1e-05	–	–
C11U A12G C34A	< 1e-05	–	–
G13U G29A U31A G37C	< 1e-05	–	–
A14U C34U G37C G51A U55C	< 1e-05	–	–
A12U G40C C61A	< 1e-05	–	–
A15G A33G A53U	< 1e-05	–	–
A12C A20C	0.00491 ± 0.0012	0.0118 ± 0.0035	–
A12C G32C G62A G63U	< 1e-05	< 1e-05	–
A12C U46A G51U U54G G60A C61A C70A	< 1e-05	–	–
A15G C34A C71U	< 1e-05	< 1e-05	–
A14C A53U C67U	0.000153 ± 4.6e-05	0.000626 ± 0.0002	–
A14G A33G G37A C50G C70G	6.3e-05 ± 2.1e-05	4.9e-05 ± 1.5e-05	–
G13C G29U G41U C68A C70A	< 1e-05	–	–
G13U G66C U69G	7.62e-05 ± 2.3e-05	–	–
G13C G37C U45G	< 1e-05	< 1e-05	–
C11U U31A C50G	8.34e-05 ± 2.1e-05	9.55e-05 ± 3.2e-05	–
A12G G37C U57A	< 1e-05	< 1e-05	–
G13C A36U G59A	< 1e-05	–	–
C11G G41U C50U	< 1e-05	< 1e-05	–
C11U U57G G63A	< 1e-05	< 1e-05	–
A14G U47A G66C	0.000364 ± 0.00011	0.00101 ± 0.00023	0.00125 ± 0.00022
